Measurements as given in publication PMC9063451.

What was measured:
[1] = molecular target: BotI-like toxin (Buthus occitanus tunetanus) (UniProt P01488); test: SPR
[2] = molecular target: BotI-like toxin (Buthus occitanus tunetanus) (UniProt P01488)

B1: NbBotI-01 (VHH)
VHH: QVQLQESGGGLVQPGGSLRLSCAASGFSFTVYYMSWVRQTPGKGLEWVSGINRDGSIIDYADSVKGRFTISRDNAENTLYLEMNSRKSEDTALNDCTPHVRGGRYRTRGQGTQVTVSS
Question: B1 was tested. Which Kd [1] did it give?
Answer: The Kd was 0.0953 nM.

Question: And the koff [1]?
Answer: The koff was 0.000464 s⁻¹.

Question: And the kon [1]?
Answer: Its kon is 4.87e+06 M⁻¹ s⁻¹.

B2: NbBotI-17 (VHH)
VHH: QVQLQESGGGPVQAGGSLRLSCAASGFTDSNKNVHWFRQVPGKQCERVSTITSNGVTNYADSVKGRFTASRDNSKNTVYLQMNTLKTEDTAVYYCVSVYIWESIGPSQRCRGQGTQVTVSS
Question: B2 was tested. Which neutralisation of the toxin's lethality in Swiss mice (i.c.v. injection after 1 h preincubation at 37°C); 2 or 4 molar excess of Nb: 50% neutralisation at 6 and 7 LD50 (LD50 of toxin (50% neutralised)) [2] did it give?
Answer: The neutralisation of the toxin's lethality in Swiss mice (i.c.v. injection after 1 h preincubation at 37°C); 2 or 4 molar excess of Nb: 50% neutralisation at 6 and 7 LD50 (LD50 of toxin (50% neutralised)) was 7.

Question: What about the Kd [1] of the same binder?
Answer: The Kd was 4.72 nM.

Question: And the koff [1]?
Answer: Its koff is 0.0308 s⁻¹.

Question: And the kon [1]?
Answer: Its kon is 6.52e+06 M⁻¹ s⁻¹.
